Experimental data reported in a protein production outcome set (Wang et al. 2014).

Experiment: label from the status in PepcDB records

Row | Sequence | protein production
1 | MHFRLSFISIIYRLLGILLASAFVGWLFDYVLLVMLATSIFLLVWHYHHLFKLINWIWQSKALSPPQAKGVWGYLYDGLYRQVKQQRNKQKQLNEKIRRFRDGAEALPDAALMLSEELTIEWGNKKAQRLLGVRWPDDFGQRIDNLLRAPEFSDYLAHENFEYPCLLVSPIHSDVQLEIRLMAYGSEHVLLLARDISNLQRLEDMRRDFVANVSHELKTPLTVVRGYVEMIQASPEAFDPHWQKAFQTIEGQVSRMDRLVEQLLNLAKVENNSDDEKQCVNMAQLIRTLVDEVTWLNQEKQHQIMLDISTDVSVLGFETELKSACANLLSNAIAYTPPKGCIEVSWRLMGNKAIFSVKDNGDGIKPEHVNRLTERFYRIDRSRSRDTGGSGLGLAIVKHVLHHHQAELIINSHWGQGSEFSIYFDPSTLSNPSR | failed
2 | MIYPDELAVITSKFELELSETDRNKVHENVSTVSGRDFFMSIFEGLKMKDKILEYWDFRSSDYHTEYAHCMDEEMDVWKSVFSEILLTDKKVRAVEVGTGPGILAISLAAMGHDVTGVDLSENMLEKAAANAREKGVNVLLMRGDAEDIPLKDGEYDFVLSKYLLWTLPQPDKFLGECCRLLKDGGIMMIIDGLWFHNPDGTEKKSSRYERFDELYGDVKPNLPFAKENTPERIADLAESHGFEDLTWRFLDDYDAFLERNDPSGHAAAYIKPPHMILAKKKVRNS | failed
3 | MTTKPRLCTALLTLAIAVSASAPVLAQSMAGGSAKNRYANQTKLDPYPPEGGWQGLANLLEAAKPGVDTRLDPTPSQITDRIEELLNRGANEEALSLIERREAAIKGQRGADVQLMFQHARALAALGRADEAIAVYSDMTTQFPELPEPWNNLAALYASRGELERAQDSLQMALRANPDYAAARANLGDIQLMMALRTYRQEEARGVPGMKARVEEIESLLKDKQPK | failed
4 | MVVVCASHIQPAIICRFTWLRFLMEIILIRHGKPTSANNPVLNAVDFTKWVRRYNFSDVSTNSRPDSILDEYKSHYIVSSDLERAIHSASIYTGQSPELTSKLYREMEIPRYKFPLRFKAMTWVYINRAFWMLGLKGSFESYRQAKIRAELASDHLVELAREQDKVILFGHGYLNLHIRRSLIKKGWKLNSKSNGFWGISSLEG | failed
5 | MKIVIAPDSYKESLSALEVATAIEQGFREIWPDADYLKLPLADGGEGTVEAMVEATAGRIVHVEVTGPLGHRVNAFYGLSGDARSAFIEMAAASGLEQVPPAQRDPLKTTSWGTGELIRHALDAGVEHIIIGIGGSATNDGGAGMVQALGARLRDAQGNDIAQGGIGLETLASIDISGLDKRLSACHIEVACDVTNPLTGKEGASAVFGPQKGATPEMIERLDTALTRYAHLIARDLHVDVLDLAGGGAAGGMGAALYAFCGAQLRRGIEIVTDALHLEACLADADLVITGEGRIDSQTIHGKVPIGVANIAKRYNKPVIGIAGSLTADVSVVHEHGLDAVFSVIYTICTLEDALKNASENVRMTARNVAATLKAGQQLR | not failed
6 | LNDLKESSNNRKARVLYDYDAANSTELSLLADEVITVFSVVGMDSDWLMGERGNQKGKVPITYLELLN | not failed
7 | KDPLLNSLIYVSRYYGLANSPEALVNGLPLSDGKLTPFLLPRAAERAGLVAKENRAELEKISSLILPAILVLKGGDSCVLNSINMETREAEVTTLESGMVPISIPLEDLLEQYTGRYFLVKKQFR | failed
8 | MSNKLLLVFALIGIIVVFSCGLFLPIPIGYRVSMLTAGVIMSVVFSIIIPFDRKHIVRKKGNKIDFTKTKVYFRWNVFDTISVCLALYACICVQVLIFLVPMGFTIQNPYVQFFTNQSQLWVFIAIAYLISRISLTLKGIKEIKNHGADWD | failed
9 | MANGTTPSVGIALGSGAAKGWAHIGVLNGLAAMGIKPDKVAGCSVGALVGAAYAHDHLPELEEWVRSFSSWDVLGLMDIRWRKGGLIGGDKVFDVLQARIGDVNIENLNRPFAAVATDLYSGQEIWFTEGDLRQAVRASCSMPGILAPVRQGDRWLVDGAVVNPVPVSVSRAMGVDVVIAVDLYGYHSGRIQVLPVSMTSQKNVEAEMDMSARQETGFMDLFARGRDYVSNLTDKFSLGTKSNPGMIAVMSQSMGILEQRHKRARLMGDPPDICIVPEVGNIGTMEFHRADEAIAAGEAAVEKVAHLIEAALWKG | not failed
10 | MKSVIFTEEKNLQRQNPLQKSEQQRRNFEMPSPPTTTSLSVTQTINGSHSFTIKGYSLAKGIGIGKHIASDTFTVGGYQWAIYFYPDGKNPEDNSAYVSVFIALASDGTDVRALFELSLLDQSGKGKHKVHSHFDRALESGPYTLKYRGSMWGYKRFFRRLMLETSDFLKDDCLKINCTVGVVVSEIDCPRLHSIHVPASDIGSHFGMLLENEDGSDITFNVSGEKFRAHRLVLAARSPVFESEFLDVTGEEDRDIEVTDMEPKVFKALLHYIYKDALIEDAESSSSSGSSVGPSASDTLAAKLLGAADKYKLPRLSLMCESVLCKDISVDSVANILALADRYNASALKSVCLKFAAENLIAVMRSDGFDYLREHCPSLQSELLKTVAGCEEELSGGGGKTRSVWGQFSDGGAETNGRQAQTWGDINGGAERSQSVWVEVVNANGSGRNNNDNNNSDDPMAELED | failed
11 | MKKLKRAYKMEINPTDEQKSKIHQTIGVSRFIYNFYIARNKEIYEKEGKFVSGMDFSKWLNNEYIPNNQEMKWIKEVSSKATKQAIMNGDKSFRDFFKKAKGFPRFKKKKNQDVKAYFPKNNKTDWTIERHRVKIPTLGWVRLKEFGYIPTNSIVKSGTVSQKADRYYVSILVEETDIKISNSNIGIKIFNHNNEGIGIDLGIKDFAICSNGNKFKNINKTSTIKKVEKNLKREQRKLSRKYESLKIRNKKEKGGNVTRQNIQKQIVKVQKLHQRLTNIRTDYINKIVSSIIKQKPSYITIEDLNVKGMMKNKHLSKAIASQKFFEFKTKLMSKCKQNDVELRIVDRFYPSSKTCSQCGEIKKDLKLSDRVYKCSCGLVIDRDLNASINLRNAKEYKIALEHHHHHH | not failed
12 | MQRDVSSCNTYNYGDALYWDARYVQDALSFDWYQCYSSLRPFVRSFVSTSSRVLMVGCGNSLMSEDMVKDGYEDIMNVDISSVAIEMMQTKYASVPQLKYMQMDVRDMSYFEDDSFDTIIDKGTLDSLMCGSDALLSASRMLGEVSRLIKPGGTYFLITYGDPKVRMPHLTRSAYNWKISLYIIPRPGFKRPESCSSSAKSCMEAIPITSEGMLPHDYVLEDPDSHFIYICKKKDEDEEAQLPSYPLMEDVL | failed
13 | MSLNVIDLFSGVGGLSLGAARAGFDVKMAVEIDQHAINTHAINFPRSLHVQEDVSLLNAEIIKGFFKNDMPIDGIIGGPPCQGFSSIGKGNPDDSRNQLYMHFYRLVSELQPLFFLAENVPGIMQEKYSGIRNKAFNLVSGDYDILDPIKVKASDYGAPTIRTRYFFIGVKKSLKLDISDEVFMPKMIDPVTVKDALYGLPDIIDANWQSDSESWRTIKKDRKGGFYEKLWGQIPRNVGDTESIAKLKNNIISGCTGTLHSKIVQERYASLSFGETDKISRSTRLDPNGFCPTLRAGTARDKGSFQAVRPIHPYHPRVITPREAARLQGFPDWFRFHVTKWHSFRQIGNSVSPIVAEYILKGLYNLLNEGHHHHHH | not failed
14 | MDITSLINANVICLDLTSTSKEDILQEMVQILDDAGKLSNKTQFLSDVWAREEIGNTGFEDGIAIPHAKSSAVLTPSVAIGISRTGIDYGAEDGEPSDIFFMLASTDGDDNQHIEALAQISSRLIEDGFTNKLKKADSKEEILDLFTDIIQPNTESTDIENAPSQIEKSELTRKLGRTKEHLLFGTSHMIPFIVAGGVLLSLSVMISGQGAVPTEGILADIAQMGIAGLTLFTAVLGGYIAYSIADKPGLAPGMIGSWIAVQQYNTGFLGAIIIGFFAGFVVRSLKKIKLPESMASLGSIFIYPLVGTFLTCAAVMWVIGAPISNAMAALNEWLASMAGSGKIALGAILGAMAAFDMGGPINKVATLFAQTQVNTQPWLMGGVGIAICTPPLGMALATFLSPKKFKRDEREAGKAAGIMGMIGITEGAIPFAAADPARVIPAIVAGGIVGNITGFVFNVLNHAPWGGWIVLPVVDGKIGYIIGTLLGAFTTAAIVILLKKNAVEDDEHTQQKFTFESVKNEGEADVLAVTACPSGVAHTFLAAKSLEKAAHKLGIKIKVETQGADGINNRITPLDIKNAKLVIFAHDVAIKEPLRFKGMRTLDIATKDAMYSAEQLLNDNLTKHHKRFSKA | failed
15 | MNVPILPTISTSCIVISAILVAIGWALIWKRQVHKHKNIMLWAAFFALTFFIIYAARTIFIGNTAFGGPSSIKVYYTIFLVFHIILATVGGVLGLIQIILAFKDKLHIHRKIGPWASIIWFFTAITGVAVYVLLYVLYPGGETTSLLKATLGL | failed
16 | MSIEIWITIIVFFLTMIVIFWRPRGLNEAWPAAIGAGIILITGLVSKPDVIDIVSKIGGASITILATIVMAVILESFGFFHWSAAKLANLAKGSGRRLYWYIQLLCFLMTLLFNNDGSILITTPILILLLKNLQLKPHQQIPYLLSGALIATASSAPIGESNIVNLIALNIVNMTLYMHTAMMFVPATLGLLFMSWLMYSVLKKKLPKKLPVSSYDIEEIFFTKNFHPLKGNNSVDTKQKRTRFMLKVLGFVFLMRCLLFVASFLSIPIEIVAVLGSLVLLIWRWYYLRTNPVDILKKTPWHILIFAFSMYVIIYGLHNAGLTAALVQWLEPIVNQHLLYASFAMGGLVSILSNVFNNHPALMIGTITLTEMGLDPVTLKTIYLANIIGSDIGSLLLPIGTLASLIWMYILKQNKIKVKWKDYLSVSLIVIPLTTVVTLFLLFYWVHLFFAL | failed
17 | MTEIKYKVITKDAFALPYTIIKAKNQPTKGVIVYIHGGGLMFGKANDLSPQYIDILTEHYDLIQLSYRLLPEVSLDCIIEDVYASFDAIQSQYSNCPIFTFGRSSGAYLSLLIARDRDIDGVIDFYGYSRINTEPFKTTNSYYAKIAQSINETMIAQLTSPTPVVQDQIAQRFLIYVYARGTGKWINMINIADYTDSKYNIAPDELKTLPPVFIAHCNGDYDVPVEESEHIMNHVPHSTFERVNKNEHDFDRRPNDEAITIYRKVVDFLNAITMV | not failed
18 | MEDLKGSHGLGLKIQLSRVCEVKPEVKPLPAGETPSCGFARLDRRCLCGHRATLIPLGLPIAPRPPPSRCPFLKPSLPYVPGPEYGKQRPSCPVPIMSEVTKELLELVWGTKSSPGLSDTIFCRWTQGFVFSDSEGSALEQFEGGPCAVIAPVQAFLLKKLLFSSEKSSWRDCSEDEQKELLCHTLCDILESACDSSGSYCMVSWLRGRTTEDAARISGSPAQSSCQVGHSSALAVEELGFERFHALIQKRSFRTVSELKDAVLDQYSMWGNKFGVLLFLYSVLLTKGIENIKNSIEDANEPLIDPVYGHGSQSLINLLLTGHAVSNVWDGDRECSGMQLLGIHEQATVGFLTLMEALRYCKVGSYLKSPKFPIWIVGSETHLTVFFAKDMALVAPEAPSEQARRVFQTYDPEDNGFIADTLLEDVMKALDLVSDPEYINLMKNKLDPEGLGIILLGPFLQEFFPDQGSSGPESFTVYHYNGLKQSNYNEKVMYVEGTAVVMGFEDPMLQTDDTPIKRCLQTKWPYIELLWTTDRSPSLN | failed
